Test results as given in the supplement of paper PMC10567573.

B1: GLTSCR2 (parent)
chain: FQRRNMIEPRERAKFKRKYKVKLV
B2: INTS4 (parent)
chain: TIIEPAGESDNPLRFTSGLVVALD

Variants of: B1
Assay: protein stability index of a GFP-peptide fusion (GPS, HEK-293T) (PSI 1-6); higher = more stable
Conditions: c terminus: a fixed tail appended
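Note: lentivirally expressed fusions sorted by FACS into six bins by GFP to DsRed ratio, PSI derived from sequencing read proportions per bin multiplied by bin number.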

Protein stability index, by site and new letter:
V21: N 2.87; K 3.29; F 2.55; Q 2.81; E 2.46; R 2.86; H 2.79; S 2.5; A 2.67; I 2.35; T 3.07; W 2.44; L 2.28; D 3.31; G 2.52; C 2.97; Y 2.61; M 2.34; P 2.33
E11: A 2.54; T 2.59; S 2.2; W 2.81; D 2.53; F 2.37; P 2.66; K 2.41; I 1.6; G 2.4; Q 2.25; N 2.6; L 2.63; R 2.23; V 1.88; C 2.36; M 2.37; Y 1.91; H 2.18
L23: C 2.73; H 2.31; R 3.21; I 2.52; P 2.12; M 1.69; W 2.15; F 1.71; D 3.1; T 2.25; Q 3.43; E 2.56; S 2.61; N 2.75; K 2.41; V 2.13; G 3.17; Y 2.46; A 2.72
R17: W 2.1; C 2.18; N 2.63; F 1.74; P 2.46; M 2.94; V 1.96; A 2.33; E 2.24; L 2.45; I 2.32; D 2.27; Y 1.65; H 1.89; T 2.56; S 2.77; K 2.79; G 1.99; Q 2.07
F15: K 3.05; C 2.67; P 2.44; G 2.96; M 2.76; W 2.12; D 2.32; Q 2.96; E 2.97; I 2.51; A 2.65; T 2.66; V 2.81; N 2.69; Y 2.7; R 3.73; H 3.14; L 3.05; S 3.08
K16: E 1.86; C 1.87; Q 1.87; F 2.4; N 2.48; W 2.7; A 1.62; D 2.63; I 2.64; R 2.73; Y 2.03; S 2.42; P 1.28; G 2.18; L 2.53; M 2.07; V 1.86; H 2.32; T 2.29
K22: Y 2.08; H 1.72; C 1.51; R 2.38; A 1.93; E 2.41; I 1.27; P 2.38; S 1.94; M 2.37; N 2.6; D 2.27; Q 2.38; T 1.89; L 1.85; F 1.73; V 2.03; G 2.97; W 1.67
R10: E 1.98; P 2.2; I 2.11; K 2.28; G 2.12; W 1.76; H 1.95; C 3.03; L 2.47; Y 2.17; F 2; D 2.58; A 2.56; M 1.92; T 1.99; S 2.13; Q 1.53; V 1.58; N 1.63
Y19: S 2.88; A 2.46; V 2.63; M 2.75; C 2.65; R 3.5; L 2.75; Q 2.87; G 2.66; D 3.03; W 2.39; I 2.54; K 3.86; P 2.74; N 2.94; T 2.37; H 2.93; F 2.52; E 3.15
R12: G 2.6; N 2.45; V 1.5; L 1.79; Y 1.79; H 2.19; C 2; M 2.69; P 1.72; Q 2.43; E 2.5; K 2.41; A 1.87; F 1.47; D 2.31; T 2.15; S 1.84; I 3.04
K14: Q 1.99; V 2.17; E 2.74; P 1.68; D 2.09; R 2.02; Y 2.39; M 1.97; C 1.26; T 2.33; L 1.82; A 1.81; S 2.3; W 2.85; N 2.02; F 2.77; G 1.39; H 2.03; I 2.5
K20: M 2.14; C 1.93; W 2.04; G 2.22; D 2.09; A 3.25; S 2.74; V 1.99; P 1.95; E 3.17; L 2.08; Q 1.93; N 2.19; R 2.1; T 2.34; Y 1.65; I 2.07; F 2.52; H 2.62
E8: G 2.18; Q 1.64; I 2.02; T 2.05; M 2.34; F 1.82; L 2.27; Y 2.23; H 2.33; C 3.15; S 2.04; D 2.13; N 2.3; P 2.42; V 2.25; R 1.83; K 2.35; W 1.91
K18: E 2.39; A 2.25; T 2.24; C 2.05; W 2.3; V 2.78; Y 1.71; R 2.32; I 2.45; M 2.22; Q 2.51; F 1.61; L 1.72; D 2.64; G 1.98; N 2.4; S 2.63; H 2.29; P 1.92
V24: Y 2.7; N 2.49; C 2.25; H 2.15; L 1.92; W 1.31; S 2.62; F 2.54; E 2.96; G 2.45; A 2.96; R 2.71; T 2.93; P 2.69; Q 2.62; M 2.25; I 1.91; K 3.09; D 3.12
A13: P 2.02; G 2.08; F 1.64; M 2.08; L 2.29; V 3.38; R 2.72; E 2.56; D 1.7; S 2.32; Q 2.35; K 2.37; T 2.03; Y 2.68; H 2.74; C 1.98; N 3.21; I 2.13; W 1.61
P9: Y 1.67; W 2.01; A 3.52; K 2.52; I 2.4; C 2.14; R 2.5; H 2.47; T 1.99; G 1.71; N 2.34; Q 2.38; L 1.78; D 2.15; F 2.4; S 2.33; V 2.19; M 2.06

Variants of: B2
Assay: as above
Conditions: c terminus: a fixed tail appended

Protein stability index, by site and new letter:
T1: K 2.68; C 2.38; H 3.23; L 1.83; D 3.21; I 2.2; G 3.82; F 1.83; A 2.45; E 2.68; Q 2.96; N 3.36; P 3.06; M 1.68
